Source: the DeepSol protein solubility set

Assay: soluble on expression in E. coli; label from the status in PepcDB or PDB records

| Sequence | soluble on expression in E. coli |
| --- | --- |
| MDASTHFRDRGALITGLMSGALDAVDAVARTRPAVEVLGLLVPVDGLMEDYLNGRAREGLGVTRSEFEPWRRQLLAVVAALLERWVGDDADLWRALAMRAGSYCGTVVELVDSVVRPEHADPASWAGRAPRWPRGVDASAVLLALAPPGIAEAFLDDCVTNAAAAGVLTRMLDRGPLHPLFVEYALGSLGTEAMRASLNRNPAYAIAQLRDQVLRERTDIAVLEHAYFAPPTDRALRVGLVRLAEAVGGFRPRFISRLESHAEDIASLEPLLVCSDPQLVHWVLRRVNATLKVPAMRWAAYATLALTAGPEPVWALEQERVGTLSRMAEPVRASMSTGSVAPILAAAGAAPVTIGPAGSAIELGAPLIEPWPYTELICEHVEGDGHRADPVDKPAADRPSSTRLGRSAEV | not soluble |
| MTLLLPRRRFSALLDHIKNWTSSIRADKQYRSFSTGDLVSPSQPSAFEPDFMEMEFGATPTTSSLPSHFDDNDLVPVEFKKSGVKLIPQGTRKAEKAKKFGSFEELSKVKLEDIHRAQSWFFVDVDPKSAERILMSNGFSDSSFLISFFRQKYVLSIWRKTKVEHLVIRNYQKKNGTMAFQLDIDRSFKNLVELTEYYTKNKSYVLCTKLSKGVSRPRRNPDTRTRA | not soluble |
| MITSYEATVVTTDDIVHEVNLEGKRIGYVIKTENKETPFTVVDIDGPSGNVKTLNDGVKKMCLVHIGKNLPAEKKAEFLATLIAMKLKGEI | not soluble |
| MAHHHHHHMSETSACPLNDFFDIDEENNLDEIKKEEKDVFSGNFLSYIYNQFEFCCINFFDELKKKDKRKNITLKKNYSDGYSKNDNGQCYYNVFDKILKKDVDTIKEVSLHSIYFNPHADWCECAHEFNLELNHEEAEFCIFNFFLKMYRYEERNKDLLLSILLECLYSKKDMKKAFHIQKENLKFLKEIKNIETSNFKESLNELINIIENTNFIQFNANEKKDMQKYYFKLYIIIKIKYPYGIYIFNCDDVYDIVVIDCNTFMQNKPKIMSFLSLRKFISFLNNIYSININEENIYDSFPIIVYESKECYHLSHSHLPLNLTACTPKEKKKNSVKNHLNQSGNENENENKD | not soluble |
| MQSAKPLFDYPKYWAECFGPAPFLPMSREEMDLLGWDSCDIIIVTGDAYVDHPSFGMAIIGRLLESQGFRVGIIAQPNWQSKDDFMKLGEPNLFFGVAAGNMDSMINRYTADKKIRSDDAYTPGGMAGKRPDRASLVYSQRCKEAYKHVPIVLGGIEASLRRIAHYDYWQDKVRNSILIDACADILLYGNAERAIVEVAQRLSYGHKIEDITDVRGTAFIRRDTPQGWYEVDSTRIDRPGKVDKIINPYVNTQDTQACAIEQEKGNVEDPNEAKVVQILASPRMTRDKTVIRLPSVEKVRNDAVLYAHANRVLHLETNPGNARALVQKHGEVDVWFNPPPIPMTTDEMDYVFGMPYARVPHPAYGKEKIPAYDMIRFS | not soluble |
| VSFPSSPPALPAIVARFAVGRPVRAVWVNELGGVTFRVDSGMGAGCEFIKVARRGTADFANEARRLRWAAPYLAVPRVLGVGVDGDWAWLHTDALPGLSAVHPRWRASPQVAVPALGAGLRTLHDSLPVHSCPFDWSTASRLAKLAPARRAELGDSPPVDRLVVCHGDACSPNTILDDTGRCCGHVDFGNLGVADRWADLAVATLSLQWNFPDYPGQVRDDEFFAAYGVAPDPARIDYYRRLWQAEDDSSR | soluble |
| MSSAIERKSLDPSEEPVDEVLQIPPSLLTCGGCQQNIGDRYFLKAIDQYWHEDCLSCDLCGCRLGEVGRRLYYKLGRKLCRRDYLRLFGQDGLCASCDKRIRAYEMTMRVKDKVYHLECFKCAACQKHFCVGDRYLLINSDIVCEQDIYEWTKINGMI | not soluble |
| MAPKRALPTEQVVAQLLGDDMGPSGPRKRERLNHLSQEEKMDRRKLKNRVAAQNARDKKKERSAKIEDVMRDLVEENRRLRAENERLRRQNKNLMNQQNESVMYMEENNENLMNSNDACIYQNVVYEEEVVGEVAPVVVVGGEDRRAFESAAFINEPQQWEQARSTSINNNISNQLRRMDSKKNNTISVDMYLTIISILCNHMDRNKKMDTSNKSSNISRAQAESSIDSLLATLRKEQTVMQRLVQADPCTHLQKRVKHFRRIP | soluble |
| AHHHHHHGSARITEEQRRKLAQDALEYHRNNFPGNGKIEVIPKVPLRDFYDLSLAYTPGVAEPCKVIAKKGNYEDYTIIPNTVAVVTDGSAILGLGNIGVLAGMPVMEGKCVLFKALAGIDAFPILIDTQDVEKIVETIKLISKGFGGINLEDISAPRCFEIEMRLKRELDIPVFHDDQHGTAVVTLAGLINALKLVGKKFNEIKVAISGAGAAGIAIAKLLHHVGVKEILLVDRAGIIYEGRKENMNPYKEEVARFNIHGVQGDLAKAMEGADVFIGVSVGGIVKPWMIKKMADDPIVFAMANPIPEIMPEDAKKAGAKIVATGRSDYPNQINNVLGFPGIFRGALDVRATDITLNMNIAAAEAIASVVSDEELSEDYIIPSPLHPDVYPKEARAVAEQAIRDGVARRKLSGEWVEEHTRKLREFYAALIEPLNERRKQYIT | soluble |
| MLKKNDIVEVEIVDLTHEGAGVAKVDGLVFFVENALPSEKILMRVLKVNKKIGFGKVEKYLVQSPHRNQDLDLAYLRSGIADLGHLSYPEQLKFKTKQVKDSLYKIAGIADVEVAETLGMEHPVKYRNKAQVPVRRVNGVLETGFFRKNSHNLMPLEDFFIQDPVIDQVVVALRDLLRRFDLKPYDEKEQSGLIRNLVVRRGHYSGQIMVVLVTTRPKVFRVDQLIEQVIKQFPEIVSVMQNINDQNTNAIFGKEWRTLYGQDYITDQMLGNDFQIAGPAFYQVNTEMAEKLYQTAIDFAELKKDDVIIDAYSGIGTIGLSVAKHVKEVYGVELIPEAVENSQKNASLNKITNAHYVCDTAENAMKKWLKEGIQPTVILVDPPRKGLTESFIKASAQTGADRIAYISCNVATMARDIKLYQELGYELKKVQPVDLFPQTHHVETVALLSKLDVDKHISVEIELDEMDLTSAESKATYAQIKEYVWNKFELKVSTLYIAQIKKKCGIELREHYNKSKKDKQIIPQCTPEKEEAIMDALRHFKMI | not soluble |
| MGSDKIHHHHHHLFDRYEAGETAVLVHIDFTDEGSREDLAELQLLVESAGARSVGVITGSRRAPDRKFFVGTGKAEELAAMVAATDANVVIFNHALSPAQERNLEHLCRCRVLDRTTLILDIFAQRARTHEGKLQVELAQLRHMSTRLVRGWTHLERQKGGIGLRGPGETQLETDRRLLRGRIKNINRRLEKVDKQREQSRRARQRSDMAAVSLVGYTNAGKSTLFNTLTSAEVYAADQLFATLDPTLRKLELPDGAAILADTVGFIRHLPHDLVAAFKATLQETREADLLLHVIDCADEKMRDNIEQVQAVLKEIDADEIPQLIVCNKIDLVEGIKPAIDRDDTGKPFRVWLSAQQNQGLDLLRQAVQELVGNVIAELTLKIPATAGHYLGQFYRLDAIQQKEYDDLGNCILSVRLPDADWRRLAKQSQGELETFIVDTATDRVVC | not soluble |
| MGSDKIHHHHHHMAGEPRLGRTGPRVSRVGLGLWQFGSPMWGGKALSADVLARGLSIAVEEGINLLDTAEVYGMGSSERMLGEALKRLNAREDFVIVSKVAGFRSTAGDIVKGARGIAGRLSSAPDVILHHWPPPVYSRLCSVVRGLEQAVNEGLASYYGFSNYGEDLLGDALSCTRRLEPVADQILYNLAYRTPEQRLIPLLHQHGMTPIAWSPLAKGALAGFKGEPTRAQAGDPVFRTALEDTGLQEVLESVARRLGASKASVALAWVAYKGAVPIVGWRRPERVREAAAAARLKLSEEDVALLDEASKRYVTLWGSSYSPPGLRRIRLIPGALQRLAIRLWGGI | not soluble |
| SMPVRRVRVVKQEAGGLGISIKGGRENRMPILISKIFPGLAADQSRALRLGDAILSVNGTDLRQATHDQAVQALKRAGKEVLLEVKFIREVNTVV | soluble |
| MSLKITDVKVWLVQGIKYNWTLLKIYTDEGYTGVGEATNWPGSPIVFEAAKHVGQRIIGLDPMKTDFIWTKLYRDLNWIGPYGASLCAISGIDMALLDLKAKVLGVPCYELLGGAYRKDIQLYANYWFTGGGHNEADYAAQARRVMDAGFTGLKFDPFAHTNYFYGEDLASNLTLTAEQQDLAFNVSKAVREAVGSECDIMIETHAMLNYRVAVKMAERLAKLDITWYEEPAGPESSQTLRAMRERIPSDVAICVGERHYTRFGIRSLLEKHVCDVIMPDITRCGGPSEMKRMATMAEAYNVLIAPHNPNGPLSTLASSHVCAAIPNFFRQEFMFNDVPWRDTVIDHPIAEMVYDGHLHLSDRPGLGVDLVEEEMEKHPGITTDAPDNFYIEGHHHHHH | soluble |
| MSLNEQRFFRFLRERIGLDVESVGAPMVERALRQRCVAAGAMDLDDYWLRLQQSADEQQALIEAVIVPETWFFRYPESFTALASLAHKRLAQLAGARPLRLLSLPCSTGEEPYSLAMALFDAGMAPGAFLVDGMDISPSSVAKAGQAVYGRNAFRGSELGFRERYFDALDEGHRLHERVRQQVSLRVGNVLDPALASRDGLYDFVFCRNLLIYFDVPTQQRVFEVLKRLLHPQGVLFIGPAEGSLLARMGMRPLGIAQSFAYVRHEGDSAPLAAAPAQTAKRAFTTLPAPVYPQPSVPLPRSRRVLPVAARPARAREHSHEGASELLAGIARLANAGASEQARSECQRYLSQYPPSAQVYYWLGLLSDTEGDAQQALSHYRKALYLEPQHPEALVHLAALLAAQGDLAGARRLQERAARAGRESEREGHHHHHH | soluble |
| MGKHEKGSSKDLANRTKSKGLQKLKFFCQMCQKQCRDANGFKCHLTSEAHQRQLLLFAENSNSYLRQFSNDFEKNFMQLLRTSYGTKRVRANEVYNAFIKDKGHVHMNSTVWHSLTGFVQYLGSSGKCKIDEGDKGWYIAYIDQEALIRKEEDQRKQQQEKDDEERHMQIMDGMVQRGKELAGDDEHEYEATELIRDTPDQKIQLDLNLGILDRKLDVKSGVASAKISIFDMPKVKKEDPDEPGPSQPSRKSGKKRSRSRSPAAKKFSKKSALDEIKEMEERKKERKNRKDYWMREGIVVKVITKSLGSEYYKAKGVVRKVVDDYTAQVKLDDGTVVKLDQEHVETVIPSLGRQMMIVNGAYRGQEATLESIDEKRFSLRLKIASGPTRGRQIDVPYEDASKLA | not soluble |
| GPGSMPLTAAGMRTLMRQMQEVQEHPVDGVQVRPSDSMNEYHFDVDGPEGTPFAAGRFHVVLIFDEQYPEVPPKGFFRTKIFHPNISERGDICVNTLKRDWSPMLGLRHILVVIRCLLIEPNPESALNEEAGRLILEEYAAYERKAAMYTAINAARPNGVPRFTLPEVKAEKASGSVTACASAGAAADSGASATAAAAAASASSMANGGAPSTATRGLTLSEANCHPGSATAAEKAEKSKKKALRRI | soluble |
| DEEPMHYGNIMYDRRVIRGNTYALQTGPLLGRPDSLELQRQREARKRALARKQAQEQLRPQTPEPVEGRKHVDVQTELYLEEIADRIIEVDMECQTDAFLDRPPTPLFIPAKTGKDVATQILEGELFDFDLEVKPVLEVLVGKTIEQSLLEVMEEEELANLRASQREYEELRNSERAEVQRLEEQERRHREEKERRKKQQWEIMHKHNETSQKIAARAFAQRYLADLLPSVFGSLRDSGYFYDPIERDIEIGFLPWLMNEVEKTMEYSMVGRTVLDMLIREVVEKRLCMYE | not soluble |
| GHHHHHHHHHHSSGHIEGRHMPAAPSPAPAGAVAGGPAAGVPAAASGAAEAAMPLPAALPGALAGSHAPRLPLAAGGRLARTRAVREFFDYCLTAQGELTPAALDALVRREIAAQLDGSPAQAEALGVWRRYRAYFDALAQLPGDGAVLGDKLDPAAMQLALDQRAALADRTLGEWAEPFFGDEQRRQRHDLERIRIANDTTLSPEQKAARLAALDAQLTPDERAQQAALHAQQDAVTKIADLQKAGATPDQMRAQIAQTLGPEAAARAAQMQQDDEAWQTRYQAYAAERDRIAAQGLAPQDRDARIAQLRQQTFTAPGEAIRAASLDRGAG | soluble |
